Measured values published in patent publication US20240109954A1 (GENERAL HOSPITAL, published 2024).

How the values were obtained:
human FcγR3A (F158) [1] = biological target: T1, human FcγR3A (F158) (human, UniProt P08637 17-208); test: SPR, mAb printed on chip, FcγR injected; SPR KD of Table 6: measurable but very weak (0.003-fold of IgG1)
T1 construct: also called huFcγR3A

human FcγR2A (R131) [2] = biological target: T2, human FcγR2A (R131) (human, UniProt P12318 34-217); test: SPR, mAb printed on chip, FcγR injected; SPR KD of Table 6: measurable but very weak (0.03-fold of IgG1)
T2 construct: also called huFcγR2A
T2 sequence: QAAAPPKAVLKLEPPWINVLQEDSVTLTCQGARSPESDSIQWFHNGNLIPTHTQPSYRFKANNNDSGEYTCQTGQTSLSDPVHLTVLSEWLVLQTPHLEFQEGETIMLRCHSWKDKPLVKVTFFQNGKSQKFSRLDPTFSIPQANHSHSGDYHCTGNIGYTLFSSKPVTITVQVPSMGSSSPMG

human FcγR2A (R131) [3] = biological target: T2, human FcγR2A (R131); test: SPR, mAb printed on chip, FcγR injected; fold-change of KD relative to IgG1, same SPR measurement
human FcγR3A (F158) [4] = biological target: T1, human FcγR3A (F158); test: as above
mouse FcγRIV [5] = biological target: T3, mouse FcγRIV (mouse, UniProt A0A0B4J1G0 21-203); test: BLI, mAb on anti-human Fab-CH1 sensor; ND = not detected
T3 construct: also called mFcγRIV
T3 sequence: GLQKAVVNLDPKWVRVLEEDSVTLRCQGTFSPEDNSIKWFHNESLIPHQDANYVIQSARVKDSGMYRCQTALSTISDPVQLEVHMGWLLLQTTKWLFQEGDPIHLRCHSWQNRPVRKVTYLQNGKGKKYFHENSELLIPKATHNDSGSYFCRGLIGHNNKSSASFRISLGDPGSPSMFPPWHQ

mouse FcγRI [6] = biological target: T4, mouse FcγRI (mouse, UniProt P26151 25-297); test: as above
T4 construct: also called mFcγRI
T4 sequence: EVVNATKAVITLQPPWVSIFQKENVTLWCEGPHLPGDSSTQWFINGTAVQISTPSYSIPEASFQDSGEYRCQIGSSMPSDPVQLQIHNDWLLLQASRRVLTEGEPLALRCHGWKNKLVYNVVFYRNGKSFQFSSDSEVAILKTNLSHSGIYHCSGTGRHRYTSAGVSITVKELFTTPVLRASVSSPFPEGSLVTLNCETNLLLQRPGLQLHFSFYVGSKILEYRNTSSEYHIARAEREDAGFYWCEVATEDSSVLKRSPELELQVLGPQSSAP

mouse FcγRIIb [7] = biological target: T5, mouse FcγRIIb (mouse, UniProt P08101 30-210); test: as above
T5 construct: also called mFcγRIIb; mFcγR2b
T5 sequence: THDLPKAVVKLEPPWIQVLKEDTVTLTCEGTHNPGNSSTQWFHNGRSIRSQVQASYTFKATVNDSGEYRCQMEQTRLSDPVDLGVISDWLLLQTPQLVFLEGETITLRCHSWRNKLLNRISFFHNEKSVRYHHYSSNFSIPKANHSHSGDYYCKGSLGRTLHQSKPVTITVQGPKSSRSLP

human FcγR2B [8] = biological target: T6, human FcγR2B (human, UniProt P31994 43-217); test: SPR, mAb printed on chip, FcγR injected; ND = not detected
T6 construct: also called huFcγR2B
T6 sequence: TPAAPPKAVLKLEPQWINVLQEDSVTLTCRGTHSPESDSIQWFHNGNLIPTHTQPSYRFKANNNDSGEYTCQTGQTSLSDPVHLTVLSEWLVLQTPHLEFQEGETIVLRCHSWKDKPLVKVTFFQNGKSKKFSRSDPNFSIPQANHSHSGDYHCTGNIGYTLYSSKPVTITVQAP

human FcγR3B [9] = biological target: T7, human FcγR3B (human, UniProt O75015 17-200); test: as above
T7 construct: also called huFcγR3B
T7 sequence (O75015 17-200): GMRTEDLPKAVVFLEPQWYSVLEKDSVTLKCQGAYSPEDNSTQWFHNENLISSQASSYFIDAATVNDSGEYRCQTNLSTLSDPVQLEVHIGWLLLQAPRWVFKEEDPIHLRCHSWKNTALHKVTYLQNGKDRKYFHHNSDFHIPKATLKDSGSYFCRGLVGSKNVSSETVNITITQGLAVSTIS

mouse FcγRIII [10] = biological target: T8, mouse FcγRIII (mouse, UniProt P08508 31-215); test: BLI, mAb on anti-human Fab-CH1 sensor, FcγR in solution; monomeric mAb:receptor affinity of Table 6 (weak binding)
T8 construct: also called mFcγRIII; mFcγR3
T8 sequence: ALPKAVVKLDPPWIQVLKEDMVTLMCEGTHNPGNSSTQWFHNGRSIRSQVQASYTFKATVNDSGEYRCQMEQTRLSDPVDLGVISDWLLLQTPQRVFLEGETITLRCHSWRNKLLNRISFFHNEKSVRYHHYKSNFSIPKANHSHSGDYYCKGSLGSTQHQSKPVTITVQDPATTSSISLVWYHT

mouse FcγRIII [11] = biological target: T8, mouse FcγRIII; test: BLI, mAb on anti-human Fab-CH1 sensor, FcγR in solution
mouse FcγRIV [12] = biological target: T3, mouse FcγRIV; test: as above
mouse FcγRI [13] = biological target: T4, mouse FcγRI; test: as above
mouse FcγRIIb [14] = biological target: T5, mouse FcγRIIb; test: as above
human FcγR2B [15] = biological target: T6, human FcγR2B; test: SPR, mAb printed on chip, FcγR injected
human FcγR2A (R131) [16] = biological target: T2, human FcγR2A (R131); test: SPR, mAb printed on chip, FcγR injected
human FcγR3B [17] = biological target: T7, human FcγR3B; test: SPR, mAb printed on chip, FcγR injected
human FcγR3A (F158) [18] = biological target: T1, human FcγR3A (F158); test: SPR, mAb printed on chip, FcγR injected
mouse FcγRIII [19] = biological target: T8, mouse FcγRIII; test: BLI, mAb on anti-human Fab-CH1 sensor, FcγR in solution; remark: listed apart in the source
mouse FcγRIV [20] = biological target: T3, mouse FcγRIV; test: as above; remark: listed apart in the source
mouse FcγRIIb [21] = biological target: T5, mouse FcγRIIb; test: as above; remark: listed apart in the source
human FcγR2A (R131) [22] = biological target: T2, human FcγR2A (R131); test: SPR, mAb printed on chip, FcγR injected; remark: listed apart in the source
[23] = biological target: T9, EBOV GP displayed on vesicular stomatitis virus (VSV) pseudovirions (Ebola virus, UniProt Q05320 33-676); test: cell-based or functional assay
T9 sequence: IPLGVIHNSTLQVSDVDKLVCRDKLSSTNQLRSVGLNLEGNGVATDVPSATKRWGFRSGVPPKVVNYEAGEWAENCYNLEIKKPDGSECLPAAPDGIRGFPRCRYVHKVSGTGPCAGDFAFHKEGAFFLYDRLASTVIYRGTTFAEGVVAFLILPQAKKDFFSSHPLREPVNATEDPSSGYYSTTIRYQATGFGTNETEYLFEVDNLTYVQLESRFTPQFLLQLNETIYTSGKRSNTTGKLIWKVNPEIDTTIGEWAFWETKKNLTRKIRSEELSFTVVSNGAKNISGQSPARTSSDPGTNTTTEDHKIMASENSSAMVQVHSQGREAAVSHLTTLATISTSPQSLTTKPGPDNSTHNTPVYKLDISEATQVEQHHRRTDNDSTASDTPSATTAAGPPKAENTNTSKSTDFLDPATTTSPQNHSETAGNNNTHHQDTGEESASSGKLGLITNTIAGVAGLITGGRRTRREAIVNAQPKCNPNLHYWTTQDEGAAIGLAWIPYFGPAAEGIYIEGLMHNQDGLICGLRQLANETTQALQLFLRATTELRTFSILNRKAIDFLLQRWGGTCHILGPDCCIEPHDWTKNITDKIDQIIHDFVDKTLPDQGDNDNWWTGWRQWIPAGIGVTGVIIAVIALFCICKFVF

[24] = biological target: T9, EBOV GP displayed on vesicular …; test: cell-based or functional assay; remark: listed apart in the source

T1 sequence (P08637 17-208): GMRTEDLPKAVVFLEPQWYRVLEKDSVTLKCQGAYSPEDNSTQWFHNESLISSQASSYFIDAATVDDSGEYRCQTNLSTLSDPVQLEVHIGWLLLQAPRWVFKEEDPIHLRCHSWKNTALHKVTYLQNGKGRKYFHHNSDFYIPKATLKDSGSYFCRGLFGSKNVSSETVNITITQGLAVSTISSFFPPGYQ

B1: VIC16-LALA (antibody)
heavy: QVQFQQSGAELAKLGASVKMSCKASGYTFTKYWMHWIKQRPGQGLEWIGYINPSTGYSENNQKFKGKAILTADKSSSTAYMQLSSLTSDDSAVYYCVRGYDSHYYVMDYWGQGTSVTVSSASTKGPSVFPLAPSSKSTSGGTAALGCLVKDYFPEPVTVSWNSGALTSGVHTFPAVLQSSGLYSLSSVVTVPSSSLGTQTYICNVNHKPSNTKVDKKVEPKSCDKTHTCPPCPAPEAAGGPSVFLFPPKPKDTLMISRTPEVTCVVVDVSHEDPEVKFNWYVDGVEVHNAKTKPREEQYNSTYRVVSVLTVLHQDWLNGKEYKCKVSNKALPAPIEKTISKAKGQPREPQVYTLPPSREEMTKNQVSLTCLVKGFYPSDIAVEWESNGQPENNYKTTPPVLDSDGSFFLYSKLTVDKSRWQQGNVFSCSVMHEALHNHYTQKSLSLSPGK
light: DIVITQDTASLAVSRGQRATISCRASESVEYYGTTLMQWYQQRPGQPPKLLIYGASNVESGVPARFSGSGSGTDFSLNIHPVEEDDIAMYFCQQSRKVPYTFGGGTKLEIKRTVAAPSVFIFPPSDEQLKSGTASVVCLLNNFYPREAKVQWKVDNALQSGNSQESVTEQDSKDSTYSLSSTLTLSKADYEKHKVYACEVTHQGLSSPVTKSFNRGEC
With B1 the Kd (human FcγR3A (F158) [1]) was 1700 µM, the Kd (human FcγR2A (R131) [2]) was 892 µM and the “fold-change relative to IgG1” value (human FcγR2A (R131) [3]) was 0.03 fold. For the same binder, the “fold-change relative to IgG1” value (human FcγR3A (F158) [4]) was 0.003 fold, the binding result (mouse FcγRIV [5]) was “no binding (tested: FcγR from 200 nM)” and the binding result (mouse FcγRI [6]) was “no binding (tested: FcγR from 200 nM)”. B1: no binding (tested: FcγR from 600 nM) (mouse FcγRIIb [7]); no binding (tested: FcγR 10 µM to 0.005 µM) (human FcγR2B [8]); no binding (tested: FcγR 10 µM to 0.005 µM) (human FcγR3B [9]). For the same binder, the Kd (mouse FcγRIII [10]) was 820 µM.

B2: VIC16-SDIEALGA (antibody)
heavy: QVQFQQSGAELAKLGASVKMSCKASGYTFTKYWMHWIKQRPGQGLEWIGYINPSTGYSENNQKFKGKAILTADKSSSTAYMQLSSLTSDDSAVYYCVRGYDSHYYVMDYWGQGTSVTVSSASTKGPSVFPLAPSSKSTSGGTAALGCLVKDYFPEPVTVSWNSGALTSGVHTFPAVLQSSGLYSLSSVVTVPSSSLGTQTYICNVNHKPSNTKVDKKVEPKSCDKTHTCPPCPAPELLAGPDVFLFPPKPKDTLMISRTPEVTCVVVDVSHEDPEVKFNWYVDGVEVHNAKTKPREEQYNSTYRVVSVLTVLHQDWLNGKEYKCKVSNKALPLPEEKTISKAKGQPREPQVYTLPPSREEMTKNQVSLTCLVKGFYPSDIAVEWESNGQPENNYKTTPPVLDSDGSFFLYSKLTVDKSRWQQGNVFSCSVMHEALHNHYTQKSLSLSPGK
light: B1 light
For B2, the Kd (mouse FcγRIII [11]) was 0.01 µM, the “fold-change relative to IgG1” value (mouse FcγRIII [11]) was 0.16 fold and the Kd (mouse FcγRIV [12]) was 0.001 µM. For the same binder, the “fold-change relative to IgG1” value (mouse FcγRIV [12]) was 235 fold, the Kd (mouse FcγRI [13]) was 0.1 µM and the “fold-change relative to IgG1” value (mouse FcγRI [13]) was 0.8 fold. The Kd (mouse FcγRIIb [14]) was 0.13 µM, the “fold-change relative to IgG1” value (mouse FcγRIIb [14]) was 114 fold and the Kd (human FcγR2B [15]) was 21 µM. For the same binder, the “fold-change relative to IgG1” value (human FcγR2B [15]) was 1.1 fold, the Kd (human FcγR2A (R131) [16]) was 1.6 µM and the “fold-change relative to IgG1” value (human FcγR2A (R131) [16]) was 19 fold. For the same binder, the Kd (human FcγR3B [17]) was 3.2 µM, the “fold-change relative to IgG1” value (human FcγR3B [17]) was 7.8 fold and the Kd (human FcγR3A (F158) [18]) was 0.675 µM. For the same binder, the “fold-change relative to IgG1” value (human FcγR3A (F158) [18]) was 9 fold, the “fold decrease in binding compared to IgG1” value (mouse FcγRIII [19]) was 6 fold and the “fold increase in binding” value (mouse FcγRIV [20]) was 14 fold. For the same binder, the “fold increase in binding” value (mouse FcγRIIb [21]) was 4 fold and the “fold increase in KD compared to the VIC16 human IgG1” value (human FcγR2A (R131) [22]) was 18 fold.

B3: mIgG1 VIC16 (antibody, V domains shown)
VH: QVQFQQSGAELAKLGASVKMSCKASGYTFTKYWMHWIKQRPGQGLEWIGYINPSTGYSENNQKFKGKAILTADKSSSTAYMQLSSLTSDDSAVYYCVRGYDSHYYVMDYWGQGTSVTVSS
VL: DIVITQDTASLAVSRGQRATISCRASESVEYYGTTLMQWYQQRPGQPPKLLIYGASNVESGVPARFSGSGSGTDFSLNIHPVEEDDIAMYFCQQSRKVPYTFGGGTKLEIK
B3 was tested, and the “IC50 (read off the curve) [Cont.]” value [23] was about 0.3 µg/mL and the “IC50, neutralization of VSV pseudotyped to display EBOV GP” value [24] was 0.34 µg/mL.
